The values below come from patent US20200338203A1 (Bicycle, published 2020).

Numbered stars: 1 amine (or outer) side, 2 acyl side, 3 side chain; on linkers, the order of the positions; unused ones are H or OH. Bridge positions count the residues as written; N and C are the ends. Square brackets hold non-standard residues; d marks the D form. Ends that are not written are not given here. 1Nal = N[C@@H](Cc1cccc2ccccc12)C(=O)O; TBMB = c1c(C[*:1])cc(C[*:3])cc1C[*:2]; hArg = N=C(N)NCCCC[C@H](N)C(=O)O; Tle = CC(C)(C)[C@H](N)C(=O)O; Aib = CC(C)(N)C(=O)O; Sar = CNCC(=O)O

T1 sequence (P29317 24-537): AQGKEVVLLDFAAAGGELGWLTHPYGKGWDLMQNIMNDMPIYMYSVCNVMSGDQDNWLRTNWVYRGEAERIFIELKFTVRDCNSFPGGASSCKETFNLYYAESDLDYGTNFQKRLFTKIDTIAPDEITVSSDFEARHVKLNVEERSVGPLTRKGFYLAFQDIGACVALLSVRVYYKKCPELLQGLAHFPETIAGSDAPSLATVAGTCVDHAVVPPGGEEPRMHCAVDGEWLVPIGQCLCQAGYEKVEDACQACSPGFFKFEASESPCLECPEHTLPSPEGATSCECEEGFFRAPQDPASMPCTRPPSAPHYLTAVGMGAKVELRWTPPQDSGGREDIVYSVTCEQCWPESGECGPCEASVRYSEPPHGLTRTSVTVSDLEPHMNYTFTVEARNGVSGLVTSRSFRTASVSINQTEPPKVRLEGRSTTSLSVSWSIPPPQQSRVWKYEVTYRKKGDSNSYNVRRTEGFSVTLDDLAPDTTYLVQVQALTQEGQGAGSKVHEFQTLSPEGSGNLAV

One test has as its target T1, Human EphA2 (Ecto) (Human, UniProt P29317 24-537).
T1 construct: extracellular domain
The test is described as follows: FP competition; competitor Compound 18. The protocol: (§1) Peptides without a fluorescent tag were tested in competition with a peptide with a fluorescent tag and a known Kd (Table 2). Peptides were diluted to an appropriate concentration in assay buffer as described in the direct binding assay with a maximum of 5% DMSO, then serially diluted 1 in 2. Five μL of diluted peptide was added to the plate followed by 10 μL of human or mouse EphA2 (Table 1) at a fixed concentration which was dependent on the fluorescent peptide used (Table 2), then 10 μL fluorescent peptide added. Measurements were conducted as for the direct binding assay, however the gain was determined prior to the first measurement.
With [Sar][Sar]ACP[1Nal]G[Aib]FWCPVNRP[dA]C (linker 4-11-18 via TBMB) [Compound 128], the Ki (usually the dissociation constant of the complex between target and ligand, obtained from inhibition or displacement) was determined as 15 nM.
On to ACPWGPFWCPVNRPGCA (linker 2-9-16 via TBMB) [Compound 69], for which the Ki was 107 nM.
As for [Sar][Sar]ACPWGPF[1Nal]CPV[dA]RPGC (linker 4-11-18 via TBMB) [Compound 117], the Ki was 53 nM.
Same read-out and setting: next, [Sar][Sar]AC[Aib][1Nal]GPFWCPVNRPGC (linker 4-11-18 via TBMB) [Compound 113]: 10 nM.
[Sar][Sar]ACP[1Nal]GPFWCPV[dA][hArg]PGC (linker 4-11-18 via TBMB) [Compound 133]: the Ki is 14 nM.
For the molecule [Sar][Sar]ACP[1Nal]G[Aib]FWCPV[dA]RPGC (linker 4-11-18 via TBMB) [Compound 127], the Ki stood at 40 nM.
Take [Sar][Sar]ACP[1Nal]GPFWCPV[dA]RPGC (linker 4-11-18 via TBMB) [Compound 115]: the Ki was 12.5 nM.
[Sar][Sar]ACP[1Nal]GPFWCP[Tle][dA]RPGC (linker 4-11-18 via TBMB) [Compound 129]: the inhibition constant Ki came out at 23 nM.
Same read-out and setting: as for [Sar][Sar]ACP[1Nal]GPFWCPVN[hArg]PGC (linker 4-11-18 via TBMB) [Compound 122], the figure is 9.55 nM; as for [Sar][Sar]ACP[1Nal]GPFWCPVNRP[dA]C (linker 4-11-18 via TBMB) [Compound 116], 2.95 nM; as for [Sar][Sar]ACP[1Nal]GPFWCP[Tle]NR[Aib]GC (linker 4-11-18 via TBMB) [Compound 131], 11 nM.
[Sar][Sar]ACP[1Nal]GPF[1Nal]CPVNRPGC (linker 4-11-18 via TBMB) [Compound 120]: the Ki worked out at 1.4 nM.
On the same count and under the same terms, next, [Sar][Sar]ACPWGPAWCPVNRPGC (linker 4-11-18 via TBMB) [Compound 83]: 199 nM; ACPWGPFWCPVARPGC (printed: Sar2-ACPWGPFWCPVARPGC; TBMB on the 3 Cys) [Compound 101]: 293 nM.
Consider [Sar][Sar]ACPWGPFWCPVNRAGC (linker 4-11-18 via TBMB) [Compound 104], for which the inhibition constant (Ki) was 124 nM.
Still for that read-out and setting: next, [Sar][Sar]ACPWGPFWCPVNRPAC (linker 4-11-18 via TBMB) [Compound 111]: 108 nM.
Regarding [Sar][Sar]AC[Aib][1Nal]GPFWCPVNRP[dA]C (linker 4-11-18 via TBMB) [Compound 125], the Ki was 6.4 nM.
Regarding [Sar][Sar]ACPWGPFWCPVNR[Aib]GC (linker 4-11-18 via TBMB) [Compound 110], the inhibition constant Ki is 75 nM.
[Sar][Sar]ACPWG[Aib]F[1Nal]CPVNRPGC (linker 4-11-18 via TBMB) [Compound 123]: the Ki stood at 63 nM.
In the case of [Sar][Sar]ACP[1Nal]G[Aib]FWCP[Tle]NRPGC (linker 4-11-18 via TBMB) [Compound 126], the Ki stood at 15 nM.
For [Sar][Sar]ACPWGPF[1Nal]CPVNRPGC (linker 4-11-18 via TBMB) [Compound 96], the Ki was found to be 31.3 nM.
On to [Sar][Sar]ACP[1Nal]GPFWCP[Tle]NRPGC (linker 4-11-18 via TBMB) [Compound 121], for which the Ki was 3.65 nM.
[Sar][Sar]ACP[1Nal]GPFWCP[Tle]NRP[dA]C (linker 4-11-18 via TBMB) [Compound 132]: the Ki is 7.7 nM.

A further test concerns the target T1, Human EphA2 (Ecto). As to the kind of experiment: FP competition; competitor Compound 66. As to the method: as §1
In the case of [Sar][Sar]ACP[1Nal]G[Aib]FWCPVNRP[dA]C (linker 4-11-18 via TBMB) [Compound 128], the Ki amounted to 16 nM.
With ARDDPCPWGPFWCPVNRPGCA (linker 6-13-20 via TBMB) [Compound 62], the Ki was determined as 28 nM.
The same measure, in the same setting: next, ACPWGPFWCPVNRPGCA (linker 2-9-16 via TBMB) [Compound 69]: 70.1 nM.
Turning to [Sar][Sar]ACPWGPF[1Nal]CPV[dA]RPGC (linker 4-11-18 via TBMB) [Compound 117], the Ki is 75 nM.
[Sar][Sar]ACPWGPFWCPVNR[dA]GC (linker 4-11-18 via TBMB) [Compound 105]: the Ki amounted to 471 nM.
Take [Sar][Sar]AC[Aib][1Nal]GPFWCPVNRPGC (linker 4-11-18 via TBMB) [Compound 113]: the Ki is 6.6 nM.
Same read-out and setting: as for [Sar][Sar]ACP[1Nal]GPFWCPV[dA][hArg]PGC (linker 4-11-18 via TBMB) [Compound 133], the figure is 3.7 nM; as for [Sar][Sar]ACP[1Nal]G[Aib]FWCPV[dA]RPGC (linker 4-11-18 via TBMB) [Compound 127], 33 nM; as for [Sar][Sar]ACP[1Nal]GPFWCPV[dA]RPGC (linker 4-11-18 via TBMB) [Compound 115], 1.64 nM.
In the case of [Sar][Sar]ACP[1Nal]GPFWCP[Tle][dA]RPGC (linker 4-11-18 via TBMB) [Compound 129], the Ki amounted to 15 nM.
On to ACPWGPAWCPVRDTNCA (linker 2-9-16 via TBMB) [Compound 42], for which the Ki came out at 316 nM.
Take [Sar][Sar]ACP[1Nal]GPFWCPVN[hArg]PGC (linker 4-11-18 via TBMB) [Compound 122]: the Ki was 8 nM.
The same measure, in the same setting: as for [Sar][Sar]ACP[1Nal]GPFWCPVNRP[dA]C (linker 4-11-18 via TBMB) [Compound 116], the figure is 3.2 nM; as for ACRVSPEYCPFGPVWCAGAAA (linker 2-9-16 via TBMB) [Compound 34], 77.4 nM; as for [Sar][Sar]ACP[1Nal]GPFWCP[Tle]NR[Aib]GC (linker 4-11-18 via TBMB) [Compound 131], 6.8 nM.
In the case of ACRVSPEYCPFGPVWCA (linker 2-9-16 via TBMB) [Compound 33], the Ki is 78.5 nM.
ACRVSPEYCPFGPSWCA (linker 2-9-16 via TBMB) [Compound 36]: the Ki came to 40.5 nM.
In the case of ACRVSPEYCPFGPEWCA (linker 2-9-16 via TBMB) [Compound 37], the Ki was 61.2 nM.
On to ACRVSPEYCPFGPYWCA (linker 2-9-16 via TBMB) [Compound 38], for which the Ki was determined as 26.5 nM.
For [Sar][Sar]ACP[1Nal]GPF[1Nal]CPVNRPGC (linker 4-11-18 via TBMB) [Compound 120], the Ki worked out at 0.98 nM.
Same read-out and setting: next, [Sar][Sar]ACPWGPAWCPVNRPGC (linker 4-11-18 via TBMB) [Compound 83]: 288 nM.
Take ACPWGPFWCPVARPGC (printed: Sar2-ACPWGPFWCPVARPGC; TBMB on the 3 Cys) [Compound 101]: the Ki turned out to be 265 nM.
In the case of [Sar][Sar]ACPWGPFWCPVNRAGC (linker 4-11-18 via TBMB) [Compound 104], the inhibitory constant (Ki) was 194 nM.
Take [Sar][Sar]ACPWGPFWCPVNRPAC (linker 4-11-18 via TBMB) [Compound 111]: the Ki came out at 238 nM.
Still for that read-out and setting: as for [Sar][Sar]ACPWGPYWCPVNRPGC (linker 4-11-18 via TBMB) [Compound 91], the figure is 138 nM.
Regarding [Sar][Sar]AC[Aib][1Nal]GPFWCPVNRP[dA]C (linker 4-11-18 via TBMB) [Compound 125], the Ki came to 0.61 nM.
With [Sar][Sar]ACPWGPFWCPVNR[Aib]GC (linker 4-11-18 via TBMB) [Compound 110], the Ki was determined as 140 nM.
Take [Sar][Sar]ACPWG[Aib]F[1Nal]CPVNRPGC (linker 4-11-18 via TBMB) [Compound 123]: the Ki is 46 nM.
For the molecule [Sar][Sar]ACP[1Nal]G[Aib]FWCP[Tle]NRPGC (linker 4-11-18 via TBMB) [Compound 126], the Ki came to 19 nM.
Take [Sar][Sar]ACPWGPF[1Nal]CPVNRPGC (linker 4-11-18 via TBMB) [Compound 96]: the Ki came to 68.1 nM.
For the molecule [Sar][Sar]ACP[1Nal]GPFWCP[Tle]NRPGC (linker 4-11-18 via TBMB) [Compound 121], the Ki was determined as 2 nM.
On to [Sar][Sar]ACP[1Nal]GPFWCP[Tle]NRP[dA]C (linker 4-11-18 via TBMB) [Compound 132], for which the Ki was found to be 8.7 nM.
